Experiments:
[1] = target: FcRn (UniProt P55899); assay: BLI (Octet), steady state
[2] = target: FCγRI (CD64) (UniProt P12314); assay: BLI (Octet), antibody on FAB2G tips, kinetic fit
[3] = target: FCγRIIa (CD32a)_H131 (UniProt P12318); assay: BLI (Octet), steady state
FCγRIIa (CD32a)_H131, sequence (P12318 36-218 limits assumed): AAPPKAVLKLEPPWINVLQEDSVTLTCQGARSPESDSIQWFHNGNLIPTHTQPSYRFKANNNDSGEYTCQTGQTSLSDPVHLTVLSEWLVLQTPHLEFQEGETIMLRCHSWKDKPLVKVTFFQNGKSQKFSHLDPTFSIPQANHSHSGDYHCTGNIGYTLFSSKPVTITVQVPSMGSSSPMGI

“hu14.18 IgG2h (FN-AQ, K322A)-delK (antibody)” was tested, and the Kd [1] was 825 nM.
In the case of hu14.18-huIgG1-delK (antibody), the Kd [2] is reported as 1.8 nM, the Kd [1] is reported as 620 nM and the Kd [3] is reported as 670 nM.

From US20220081480A1
